Laboratory results reported in US20250215397A1, “TWO-DIMENSIONAL CULTURE METHOD HAVING CLEAR CHEMICAL COMPOSITION FOR CULTURING THREE-DIMENSIONAL INTESTINAL ORGANOID-DERIVED INTESTINAL STEM CELL AGGREGATE” (KOREA RESEARCH INSTITUTE OF BIOSCIENCE AND BIOTECHNOLOGY, priority 2022, published 2025).

Assays:
Type in all cases: cell-based, human
[1] = tested on: two-dimensional intestinal stem cell population; test: Two-dimensional culture of intestinal stem cell population with removal of medium factors or inhibitor treatment; settings: presence or absence of each factor; FIGS. 7-10
Description: (§1) The three-dimensional intestinal organoids were isolated from a Matrigel dome and the remaining three-dimensional intestinal organoids were removed as much as possible by pipetting. The separated organoids were placed in 1 ml of 0.25% trypsin-EDTA (TE, Invitrogen) and incubated at 37° C. a water bath for about 5 minutes. Then, pipetting was performed less than five times so that the organoids were allowed to be isolated into single cells and small clumps, and a basal medium was added so that the total volume thereof was 10 ml. The cells fed into a centrifuge were placed on culture dishes coated with feeder cells or 1% of Matrigel (Corning). […]
To measure viability of a two-dimensional intestinal stem cell population cultured in a culture dish coated with 1% of Matrigel, a kit (LIVE/DEAD Viability/Cytotoxicity Kit, Invitrogen) capable of distinguishing and staining surviving cells and dead cells was used. […] The stained cells were observed through a fluorescence microscope (Olympus).
The two-dimensional intestinal stem cell population was plated on a culture dish coated with 1% of Matrigel and then cultured for 2 to 7 days. […] After centrifugation, a medium was added to isolate the cells into single cells, and then the number of cells was measured using CountessIII cell counter (Thermo Scientific. Inc.). […]

[2] = tested on: two-dimensional intestinal stem cell population; test: Differentiation into 2.5-dimensional intestinal epithelial cells by air-liquid interface culture, medium factor screening; settings: minimal medium composition; FIG. 24
Description: The intestinal stem cells grown to a density of 70 to 80% were washed 1-2 times with PBS, and then treated with TE in an incubator at 37° C. for 5 to 7 minutes. The intestinal stem cells isolated into single cells were collected and then diluted using the hIO medium. The cells were gathered by centrifugation, supernatant was removed, the intestinal stem cell culture medium was added thereto and sufficiently mixed, and then the number of cells was measured using Countess III cell counter (Thermo Scientific. Inc.). 2.5-3.5×10^5 cells were placed in an insert of 12-transwell plate (Corning) coated with 1% of Matrigel, and cultured in an incubator. After the cell density reached 100%, the culture medium of an upper layer was completely removed, and the culture medium of a lower layer was replaced with a differentiation medium (2 mM of L-glutamine, 1% of Penicillin-Streptomycin, and 15 mM of a HEPES buffer in Advanced DMEM F12) comprising 200 ng/ml of R-spondin 1 (R&D Systems), 100 ng/ml of EGF (R&D Systems), 2.5 µM of Prostaglandin E2 (Sigma-aldrich), 10 μM of SB202190 (Sigma-aldrich), and 10 mM of nicotinamide (Sigma-aldrich). Thereafter, once every 2 days, a surface of the upper layer was washed with the PBS or hIO medium, and the lower layer was replaced with a new differentiation medium and cultured for 8 to 12 days.

[3] = tested on: two-dimensional intestinal stem cell population; test: Subculture of two-dimensional intestinal stem cells, engraftment / cell number; settings: factor removed from culture medium, subculture; FIG. 12
Description: as §1
The two-dimensional intestinal stem cell population was plated on a culture dish coated with 1% of Matrigel and then cultured for 2 to 7 days. […] After centrifugation, a medium was added to isolate the cells into single cells, and then the number of cells was measured using CountessIII cell counter (Thermo Scientific. Inc.).

B1: R-spondin 1: WNT/R-spondin activator (protein, UniProt Q2MKA7 21-263, looked up)
R-spondin-1: SRGIKGKRQRRISAEGSQACAKGCELCSEVNGCLKCSPKLFILLERNDIRQVGVCLPSCPPGYFDARNPDMNKCIKCKIEHCEACFSHNFCTKCKEGLYLHKGRCYPACPEGSSAANGTMECSSPAQCEMSEWSPWGPCSKKQQLCGFRRGSEERTRRVLHAPVGDHAACSDTKETRRCTVRRVPCPEGQKRRKGGQGRRENANRNLARKESKEAGAGSRRRKGQQQQQQQGTVGPLTSAGPA
role of essential culture medium factor (stemness, proliferation, death) [1]: modulate stemness and proliferation of two-dimensional intestinal stem cells
effect on differentiation into intestinal epithelial cells [2]: excellent effect on differentiation into intestinal epithelial cells

B2: Noggin: BMP inhibitor (protein, UniProt Q13253 28-232, looked up)
Noggin: QHYLHIRPAPSDNLPLVDLIEHPDPIFDPKEKDLNETLLRSLLGGHYDPGFMATSPPEDRPGGGGGAAGGAEDLAELDQLLRQRPSGAMPSEIKGLEFSEGLAQGKKQRLSKKLRRKLQMWLWSQTFCPVLYAWNDLGSRFWPRYVKVGSCFSKRSCSVPEGMVCKPSKSVHLTVLRWRCQRRGGQRCGWIPIQYPIISECKCSC
need for long-term subculturing [3]: required to more efficiently perform long-term culturing

B3: WNT3A: human recombinant WNT3A, Wnt signaling pathway activator (protein, UniProt P56704 19-352, looked up)
Protein Wnt-3a: SYPIWWSLAVGPQYSSLGSQPILCASIPGLVPKQLRFCRNYVEIMPSVAEGIKIGIQECQHQFRGRRWNCTTVHDSLAIFGPVLDKATRESAFVHAIASAGVAFAVTRSCAEGTAAICGCSSRHQGSPGKGWKWGGCSEDIEFGGMVSREFADARENRPDARSAMNRHNNEAGRQAIASHMHLKCKCHGLSGSCEVKTCWWSQPDFRAIGDFLKDKYDSASEMVVEKHRESRGWVETLRPRYTYFKVPTERDLVYYEASPNFCEPNPETGSFGTRDRTCNVSSHGIDGCDLLCCGRGHNARAERRREKCRCVFHWCCYVSCQECTRVYDVHTCK
need for long-term subculturing [3]: required to more efficiently perform long-term culturing
